Data reported in IntAct's records for PubMed 19130088.

B1: Calcium-dependent protein kinase 4 (Arabidopsis thaliana (Mouse-ear cress)), Q38869 (parent)
chain: MEKPNPRRPSNSVLPYETPRLRDHYLLGKKLGQGQFGTTYLCTEKSSSANYACKSIPKRKLVCREDYEDVWREIQIMHHLSEHPNVVRIKGTYEDSVFVHIVMEVCEGGELFDRIVSKGCFSEREAAKLIKTILGVVEACHSLGVMHRDLKPENFLFDSPSDDAKLKATDFGLSVFYKPGQYLYDVVGSPYYVAPEVLKKCYGPEIDVWSAGVILYILLSGVPPFWAETESGIFRQILQGKIDFKSDPWPTISEGAKDLIYKMLDRSPKKRISAHEALCHPWIVDEHAAPDKPLDPAVLSRLKQFSQMNKIKKMALRVIAERLSEEEIGGLKELFKMIDTDNSGTITFEELKAGLKRVGSELMESEIKSLMDAADIDNSGTIDYGEFLAATLHINKMEREENLVVAFSYFDKDGSGYITIDELQQACTEFGLCDTPLDDMIKEIDLDNDGKIDFSEFTAMMKKGDGVGRSRTMRNNLNFNIAEAFGVEDTSSTAKSDDSPK
partner: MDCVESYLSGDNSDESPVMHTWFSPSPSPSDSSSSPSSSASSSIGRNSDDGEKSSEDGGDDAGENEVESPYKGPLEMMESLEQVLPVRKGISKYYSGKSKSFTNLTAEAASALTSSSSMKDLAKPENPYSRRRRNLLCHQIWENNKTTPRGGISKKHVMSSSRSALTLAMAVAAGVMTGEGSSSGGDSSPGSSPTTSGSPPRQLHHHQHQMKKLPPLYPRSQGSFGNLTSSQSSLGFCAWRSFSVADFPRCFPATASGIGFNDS

Variants of: B1
Conditions: with o3l1_arath O3L1, Q9C593

Effect of a mutation on the interaction, disrupting interaction:
D170A
D149A
D149A;F305A
D170A;F305A
